In patent publication US20220227882A1 (TRUSTEES OF TUFTS COLLEGE, published 2022):

Assays:
[1] = target: T1, R431A (Homo sapiens, UniProt P78325); assay: high-throughput flow cytometry, HEK293 cells with mutant ADAM8, high stringency; range in parentheses
T1 construct: expressed on HEK293 cells; also called human ADAM8 point mutant R431A
T1 sequence (ADAM8, looked up): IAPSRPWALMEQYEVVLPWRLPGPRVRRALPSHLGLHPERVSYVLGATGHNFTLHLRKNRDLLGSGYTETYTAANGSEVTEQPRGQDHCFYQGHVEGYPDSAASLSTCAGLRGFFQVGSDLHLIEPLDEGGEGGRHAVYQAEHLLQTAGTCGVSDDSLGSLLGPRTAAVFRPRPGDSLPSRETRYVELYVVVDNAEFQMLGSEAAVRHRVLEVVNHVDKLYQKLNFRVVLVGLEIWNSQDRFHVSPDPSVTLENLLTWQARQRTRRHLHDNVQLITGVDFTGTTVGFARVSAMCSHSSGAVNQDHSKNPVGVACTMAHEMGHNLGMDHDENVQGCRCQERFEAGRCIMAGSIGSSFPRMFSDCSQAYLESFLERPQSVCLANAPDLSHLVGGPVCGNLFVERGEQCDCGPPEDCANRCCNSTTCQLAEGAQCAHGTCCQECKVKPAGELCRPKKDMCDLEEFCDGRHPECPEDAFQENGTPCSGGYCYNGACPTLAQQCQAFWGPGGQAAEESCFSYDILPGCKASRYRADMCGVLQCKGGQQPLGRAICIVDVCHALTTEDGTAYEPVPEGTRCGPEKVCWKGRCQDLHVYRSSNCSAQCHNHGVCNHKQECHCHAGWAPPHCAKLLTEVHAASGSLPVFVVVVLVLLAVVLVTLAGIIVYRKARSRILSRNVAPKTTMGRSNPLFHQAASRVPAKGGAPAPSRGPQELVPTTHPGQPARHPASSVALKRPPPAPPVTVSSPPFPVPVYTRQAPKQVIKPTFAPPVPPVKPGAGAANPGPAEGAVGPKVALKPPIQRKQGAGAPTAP
Experimental: (§1) A variety of experimental parameters were optimized for high-throughput flow cytometry including blocking buffer, and primary and secondary antibody concentrations, to identify the optimal conditions for screening. Through these studies ADP2 and ADP13 were determined to be high affinity binding antibodies.
(§2) Thus, for these studies antigen-binding fragments (Fabs) of ADP2 and ADP13, which bind with lower affinity than the full antibody, were generated. In addition, higher binding stringency conditions were tested, such as increased pH, salinity, and temperature, and/or increased washing, to weaken binding sufficiently to allow identification of critical binding residues in flow cytometry. The final experimental flow cytometry conditions were: primary antibody incubation with ADP2 Fab (0.50 μg/ml), ADP13 Fab (5.00 μg/ml) and Control Ab (0.16 μg/ml) for 60 minutes in flow cytometry buffer containing 10% goat serum in PBS (Ca²⁺ and Mg²⁺ free). […] Samples were washed three times after primary antibody incubation and twice after secondary antibody incubation with PBS (Ca²⁺ and Mg′ free). Next, HEK293 cells expressing WT or mutated ADAM8 proteins or EV DNA were incubated with ADP2 or ADP13 Fabs or Control Ab at their optimal concentrations. Fab binding was detected using Alexa Fluor 488-conjugated secondary antibodies and mean cellular fluorescence determined using the Intellicyt iQue flow cytometry platform. […] This counter-screen strategy facilitates the exclusion of mutants that are locally misfolded or that have an expression defect. Binding of each test Fab to each mutant clone in the alanine scanning library was determined, in duplicate, by high-throughput flow cytometry.

[2] = target: T2, K458A (Homo sapiens, UniProt P78325); assay: high-throughput flow cytometry, HEK293 cells with mutant ADAM8, high stringency; range in parentheses; closed box
T2 construct: expressed on HEK293 cells; also called human ADAM8 point mutant K458A
T2 sequence (ADAM8, looked up): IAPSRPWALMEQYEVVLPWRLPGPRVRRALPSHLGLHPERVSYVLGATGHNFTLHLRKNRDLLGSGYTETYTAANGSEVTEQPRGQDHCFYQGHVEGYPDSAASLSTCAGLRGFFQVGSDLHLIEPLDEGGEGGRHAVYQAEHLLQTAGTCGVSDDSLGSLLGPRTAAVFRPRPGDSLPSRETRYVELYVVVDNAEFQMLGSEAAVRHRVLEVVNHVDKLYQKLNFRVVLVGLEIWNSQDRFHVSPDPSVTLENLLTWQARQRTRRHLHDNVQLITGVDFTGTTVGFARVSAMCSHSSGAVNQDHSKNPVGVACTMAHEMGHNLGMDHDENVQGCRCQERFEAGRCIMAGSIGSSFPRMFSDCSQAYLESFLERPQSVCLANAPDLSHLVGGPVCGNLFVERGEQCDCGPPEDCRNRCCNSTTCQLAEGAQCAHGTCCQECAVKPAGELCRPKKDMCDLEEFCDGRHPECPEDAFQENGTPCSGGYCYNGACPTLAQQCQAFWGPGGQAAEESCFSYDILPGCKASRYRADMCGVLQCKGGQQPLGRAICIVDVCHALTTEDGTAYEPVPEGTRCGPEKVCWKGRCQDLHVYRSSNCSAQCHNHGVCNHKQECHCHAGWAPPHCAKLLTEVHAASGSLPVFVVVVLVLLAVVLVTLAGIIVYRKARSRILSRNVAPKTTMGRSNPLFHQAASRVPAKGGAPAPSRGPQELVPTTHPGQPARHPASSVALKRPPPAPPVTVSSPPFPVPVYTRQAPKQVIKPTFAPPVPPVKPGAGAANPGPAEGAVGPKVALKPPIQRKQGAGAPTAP
Experimental: as §1, §2

B1: ADP13 Fab (Fab, V domains shown)
VH: EVQLQQSGPEMVKPGTSVKISCKASGYTFTDYYINWVKQSHGKSLEWIGDISPNIGGATYNPKFKGKAILTVDKSARTAYMELRSLTSEDSAVYCCTRGGSSYPYFYAMDYWGQGTSVTVSS
VL: DIVMSQSPSSLAVSVGEKVTMSCKSSQSLLYSSNQKKYLAWYQQKPGQSPKLLIYWASTRESGVPDRFTGSGSGTDFTLTISSVKAEDLAVYYCQQFYSYPYTFGGGTKLEINR
**Q.** How did the “Binding Reactivity (% WT)” value [1] turn out when B1 was run?
**A.** 79.6 % WT

**Q.** And the “Binding Reactivity (% WT)” value [2]?
**A.** 13.5 % WT
